According to PMC5005036, “PDZD7-MYO7A complex identified in enriched stereocilia membranes” (eLife, 2016):

Biological target: T1, GFP-MYO7A (mouse) (mouse, UniProt P97479 1-2215)
T1 construct: MYO7A (myosin VIIA), mouse, in pEGFP-C1; plasmid obtained from David Corey; source: HEK293, transfected, in RIPA extract; not shown: GFP, N-terminal, kept
Test: affinity purification with mass spectrometry; HEK293 cells transfected; RIPA extract; 138-1 immunoprecipitates analysed by shotgun mass spectrometry, two technical replicates
Conditions: partners not purified

T1 sequence (P97479 whole entry): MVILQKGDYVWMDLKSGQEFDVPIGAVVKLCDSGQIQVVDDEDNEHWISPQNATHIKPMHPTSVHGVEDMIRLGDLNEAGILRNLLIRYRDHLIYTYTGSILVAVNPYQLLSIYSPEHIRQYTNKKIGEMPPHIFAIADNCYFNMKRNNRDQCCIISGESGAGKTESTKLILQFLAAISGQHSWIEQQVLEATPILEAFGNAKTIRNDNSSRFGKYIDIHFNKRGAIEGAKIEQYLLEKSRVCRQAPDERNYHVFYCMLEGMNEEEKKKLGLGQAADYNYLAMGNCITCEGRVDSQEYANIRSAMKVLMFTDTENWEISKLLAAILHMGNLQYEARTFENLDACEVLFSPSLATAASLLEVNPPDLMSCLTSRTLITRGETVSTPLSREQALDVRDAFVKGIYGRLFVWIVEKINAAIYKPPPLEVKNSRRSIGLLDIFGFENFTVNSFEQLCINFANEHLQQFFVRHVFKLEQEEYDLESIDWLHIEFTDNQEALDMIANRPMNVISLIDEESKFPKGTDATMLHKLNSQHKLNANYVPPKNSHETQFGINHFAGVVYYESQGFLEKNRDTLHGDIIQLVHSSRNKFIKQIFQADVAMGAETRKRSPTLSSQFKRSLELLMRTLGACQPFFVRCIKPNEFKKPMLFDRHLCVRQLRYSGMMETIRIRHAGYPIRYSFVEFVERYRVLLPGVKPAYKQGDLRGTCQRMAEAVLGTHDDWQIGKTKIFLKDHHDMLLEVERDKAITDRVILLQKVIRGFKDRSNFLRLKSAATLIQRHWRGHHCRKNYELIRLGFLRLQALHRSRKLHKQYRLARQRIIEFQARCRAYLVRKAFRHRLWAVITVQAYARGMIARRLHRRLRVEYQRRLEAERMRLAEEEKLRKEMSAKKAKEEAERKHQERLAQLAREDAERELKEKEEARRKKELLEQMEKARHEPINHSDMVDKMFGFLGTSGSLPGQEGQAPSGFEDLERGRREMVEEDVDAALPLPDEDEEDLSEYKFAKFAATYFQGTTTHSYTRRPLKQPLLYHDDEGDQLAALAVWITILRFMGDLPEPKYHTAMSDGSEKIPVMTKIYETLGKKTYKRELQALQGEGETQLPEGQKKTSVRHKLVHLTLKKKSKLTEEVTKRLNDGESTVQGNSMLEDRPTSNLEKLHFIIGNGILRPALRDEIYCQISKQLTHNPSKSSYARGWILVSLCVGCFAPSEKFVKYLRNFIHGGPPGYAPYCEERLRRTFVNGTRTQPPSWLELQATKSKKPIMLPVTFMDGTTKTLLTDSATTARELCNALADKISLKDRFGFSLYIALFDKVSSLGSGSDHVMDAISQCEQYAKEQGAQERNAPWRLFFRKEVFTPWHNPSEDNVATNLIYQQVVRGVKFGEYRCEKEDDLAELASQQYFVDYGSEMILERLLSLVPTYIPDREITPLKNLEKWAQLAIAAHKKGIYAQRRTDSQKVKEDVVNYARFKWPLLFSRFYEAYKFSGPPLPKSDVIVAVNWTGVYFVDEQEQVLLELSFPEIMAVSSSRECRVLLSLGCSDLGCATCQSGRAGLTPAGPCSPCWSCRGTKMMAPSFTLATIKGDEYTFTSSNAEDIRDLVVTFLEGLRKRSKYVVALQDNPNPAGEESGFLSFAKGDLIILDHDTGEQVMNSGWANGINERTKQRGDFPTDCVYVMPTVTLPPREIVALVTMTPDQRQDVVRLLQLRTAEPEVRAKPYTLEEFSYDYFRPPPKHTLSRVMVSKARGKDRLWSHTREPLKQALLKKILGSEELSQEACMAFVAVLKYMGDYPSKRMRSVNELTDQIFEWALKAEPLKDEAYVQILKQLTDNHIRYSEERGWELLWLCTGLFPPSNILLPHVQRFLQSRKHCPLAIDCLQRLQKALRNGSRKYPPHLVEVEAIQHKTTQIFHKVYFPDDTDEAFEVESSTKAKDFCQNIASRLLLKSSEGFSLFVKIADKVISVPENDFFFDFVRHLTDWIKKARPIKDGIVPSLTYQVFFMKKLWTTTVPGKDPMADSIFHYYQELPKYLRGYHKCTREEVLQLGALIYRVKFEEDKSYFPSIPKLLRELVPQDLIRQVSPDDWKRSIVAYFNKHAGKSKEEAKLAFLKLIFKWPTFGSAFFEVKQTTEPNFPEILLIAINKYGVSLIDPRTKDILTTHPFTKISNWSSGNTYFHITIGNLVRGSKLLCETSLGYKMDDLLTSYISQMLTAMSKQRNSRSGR

B1: mCherry-PDZD7 (mouse), in HEK293 (natural protein, UniProt E9Q9W7 1-1021, looked up)
chain: MARGFTVGFDPLGLGELSSGSLSSVSSRGHLGSDSGSTATRYLLRKQQRLLNGPSRGIRASSPMGRVILINSPIEANSDESDIIHAVRVEKSPSGRLGFSVRGGSEHGLGIFVSKVEEGSSAERAGLCVGDKITEVNGLSLESTTMGSAVRLLTSSSCLHMMVRRMGRVPGIKFSKEKTTWVDVVNRRLVVEKCSSTPSDRSSEDGVRRIVHLYTTSDDFCLGFNIRGGKEFGLGIYVSKVDHGGLAEENGIKVGDQVLAANGVRFDDISHSQAVEVLKGQTHIMLTIKETGRYPAYKEMVSEYCWLDRLSNGVLQQLSPASESSSSVSSYASSAPCSSGSLPSDRMDVCLGPEEPTSHGPGWGRADTAMQTEPDLDSRVETWCSVRPTVILRDTAIRSDGPSSTRHLDSALSESPKTALLLALSRPRTPITRSQSHLTLWEEKKQRKKEKSGSSGEKGALQRSKTLMNLFFKGGRQGRPAGDGHREAWTLDSRSPTKVRPRLDLEKAGSVGPVQKFVTWRLRRDRERGRALLSARSGSPSGQAPTVNEQVQAWESRRPLIQDLARRLLTDDEVLAVTRHCSRYVHEGGVEDLVRPLLAILDRPTKLLLLRDIRSVVAPTDLGRFDSMVMPVELEAFEALKSRAVGPSALRPTRQDTPPKRHLITPVPDSRGGFYLLPVNSSEDEDGEIREKLGVLKVSLGASAPHHKGIPPLQDVPVDAFSLRRGACAPPPQPPPVAPRPPRPNWLLTEPLSREDTQQNQSQTPAQSCSRSRSRSRSRSHSRGQGKSPGRRRSPSPAPIATAATANGRYHRPRKARPLLPRLLDGQVAKVGARQGPLENGRIAEEAVGNVSTGALRTITLSKMKQSLGISISGGIESKVQPMVKIEKIFPGGAAFLCGDLQAGFELVAVDGESLEQVTHQRAVDTIRRAYRNKAREPMELVVRVPGPGLLPLASDLRVVKDQSLAPDCPSALGPVDDARILTQLPPPEARQLQQSLSSALKVPQSIPKLSPILKDPHDPS
notes: PDZD7, mouse, cloned into pmCherry-C1; also called PDZD7 fused to mCherry; source: HEK293, transfected, in RIPA extract; not shown: mCherry, N-terminal, kept
level in the 138-1 immunoprecipitate relative to MYO7A: ~0.4 x
